# Data published in patent publication US20240402174A1 (Takeda / Millennium, published 2024).
# B1: human mAb 1431 (antibody, V domains shown)
# VH: QVQLVQSGGGLVQPGGSLRLSCAASGFAFSNHGMHWVRQAPGKGLEWLSYISGSTGAIHYANSVKGRFTISRDNARNSLDLQMNSLGDEDTAVYYCARDGPRPDGTGYAGPSNDYWGQGTLVSVSS
# VL: EIVLTQSPASLSLSPGERATLSCKASRSISIYLAWYQQKPGQAPRLLIYDASYRAIGIPARFSGSGSGTDFTLTISNLEPEDFAVYYCQHRSSWPALTFGGGTKVEI
# notes: also called A1431
# Columns and labels:
# [1] = molecular target: T1, GII.1 VLP (norovirus Hu/GII.1/Ascension208/2010/USA); test: multiplex microsphere immunoassay
# T1 chain: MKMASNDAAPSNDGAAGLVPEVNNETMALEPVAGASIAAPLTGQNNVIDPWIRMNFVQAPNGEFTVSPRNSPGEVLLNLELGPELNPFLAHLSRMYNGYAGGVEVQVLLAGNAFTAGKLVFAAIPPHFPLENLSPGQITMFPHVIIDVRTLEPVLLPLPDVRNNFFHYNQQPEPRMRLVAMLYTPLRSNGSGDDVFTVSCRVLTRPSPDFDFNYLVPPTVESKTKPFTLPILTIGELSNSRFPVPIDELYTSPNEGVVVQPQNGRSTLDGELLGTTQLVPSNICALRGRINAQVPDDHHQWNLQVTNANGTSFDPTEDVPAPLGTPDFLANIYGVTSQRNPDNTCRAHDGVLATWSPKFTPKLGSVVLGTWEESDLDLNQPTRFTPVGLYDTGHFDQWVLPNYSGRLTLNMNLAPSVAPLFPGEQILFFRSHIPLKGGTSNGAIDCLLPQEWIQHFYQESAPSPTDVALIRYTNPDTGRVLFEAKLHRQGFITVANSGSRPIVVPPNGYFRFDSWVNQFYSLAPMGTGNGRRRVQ
# [2] = molecular target: T2, GII.17/1978 VLP (norovirus Hu/GII.17/C142/GF/1978); test: multiplex microsphere immunoassay
# T2 construct: also called Hu/GII.17/C142/GF/1978
# T2 chain: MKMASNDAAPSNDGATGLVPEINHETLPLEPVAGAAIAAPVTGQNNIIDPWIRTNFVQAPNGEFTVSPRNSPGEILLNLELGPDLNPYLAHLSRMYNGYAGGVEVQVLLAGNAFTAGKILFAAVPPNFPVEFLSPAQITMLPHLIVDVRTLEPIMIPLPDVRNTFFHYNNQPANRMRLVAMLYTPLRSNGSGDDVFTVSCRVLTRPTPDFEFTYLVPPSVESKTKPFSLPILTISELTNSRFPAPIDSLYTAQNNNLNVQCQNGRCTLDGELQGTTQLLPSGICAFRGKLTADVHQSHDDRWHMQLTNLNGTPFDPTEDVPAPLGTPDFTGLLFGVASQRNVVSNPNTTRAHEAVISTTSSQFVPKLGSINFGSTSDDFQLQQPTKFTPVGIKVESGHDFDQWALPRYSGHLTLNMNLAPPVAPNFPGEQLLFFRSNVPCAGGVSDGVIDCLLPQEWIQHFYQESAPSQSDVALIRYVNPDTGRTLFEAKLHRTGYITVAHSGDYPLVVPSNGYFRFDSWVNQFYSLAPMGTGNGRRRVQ
# [3] = molecular target: T3, GII.4/Yerseke VLP (norovirus Hu/GII.4/Yerseke38/2006/NL, UniProt P54635 1-539); test: PGM blockade assay, serially diluted mAb
# T3 construct: also called Hu/GII.4/Yerseke38/2006/NL
# T3 chain: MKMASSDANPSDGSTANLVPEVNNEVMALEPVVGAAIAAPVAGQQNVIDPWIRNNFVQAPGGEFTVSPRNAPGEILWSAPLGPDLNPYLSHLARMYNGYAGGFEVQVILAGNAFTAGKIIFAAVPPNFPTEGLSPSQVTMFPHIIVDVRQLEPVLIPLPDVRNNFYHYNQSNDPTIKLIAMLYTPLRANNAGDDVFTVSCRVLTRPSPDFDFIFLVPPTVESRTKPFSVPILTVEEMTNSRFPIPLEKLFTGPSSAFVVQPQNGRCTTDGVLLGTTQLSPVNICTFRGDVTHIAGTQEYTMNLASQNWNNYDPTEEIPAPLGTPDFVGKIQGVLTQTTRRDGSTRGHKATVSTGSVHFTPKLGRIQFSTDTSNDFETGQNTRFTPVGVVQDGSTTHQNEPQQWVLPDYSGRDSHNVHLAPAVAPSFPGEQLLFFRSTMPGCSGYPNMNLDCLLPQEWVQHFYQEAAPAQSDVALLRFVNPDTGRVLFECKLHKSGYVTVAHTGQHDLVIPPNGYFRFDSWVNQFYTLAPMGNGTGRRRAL
# Method: (§1) Plates were washed 3 times with PBST before use. […] The mixture was transferred to the PGM-coated plates including VLP-only controls and incubation carried out for 1 h at 22° C. or 37° C. Following 3 washes with PBST, detection antibody specific for the corresponding VLP was added and the plates were incubated at room temperature for 1 h and then washed 3 times with PBST. […] Following 3 washes, enzyme substrate (ABTS, KPL) was added and allowed to react for 12 min at room temperature. ABTS Peroxidase Stop Solution (KPL) was then added and plates were read at a wavelength of 450 nm in a Molecular Devices plate reader using SoftMax Pro Software (Molecular Devices, Downingtown, PA, USA) to obtain the Optical Density (GD) of each well.
# (§2) The following, day corresponding dilutions incubated with VLPs were transferred to the PGM-coated plates. The OD data was curve fit and blocking titers were calculated as the supernatant dilution interpolated at 1/2 the maximum OD for the plate. The blocking titers represent the supernatant dilution that produces a 50% reduction in VLP binding to PGM. The maximum OD for the plate was calculated from the VLP only control.
# [4] = molecular target: T4, GII.4/Houston VLP (norovirus …, UniProt P54635 1-539); test: PGM blockade assay, serially diluted mAb
# T4 construct: also called Hu/GII.4/Houston/TCH186/2002/US
# T4 chain: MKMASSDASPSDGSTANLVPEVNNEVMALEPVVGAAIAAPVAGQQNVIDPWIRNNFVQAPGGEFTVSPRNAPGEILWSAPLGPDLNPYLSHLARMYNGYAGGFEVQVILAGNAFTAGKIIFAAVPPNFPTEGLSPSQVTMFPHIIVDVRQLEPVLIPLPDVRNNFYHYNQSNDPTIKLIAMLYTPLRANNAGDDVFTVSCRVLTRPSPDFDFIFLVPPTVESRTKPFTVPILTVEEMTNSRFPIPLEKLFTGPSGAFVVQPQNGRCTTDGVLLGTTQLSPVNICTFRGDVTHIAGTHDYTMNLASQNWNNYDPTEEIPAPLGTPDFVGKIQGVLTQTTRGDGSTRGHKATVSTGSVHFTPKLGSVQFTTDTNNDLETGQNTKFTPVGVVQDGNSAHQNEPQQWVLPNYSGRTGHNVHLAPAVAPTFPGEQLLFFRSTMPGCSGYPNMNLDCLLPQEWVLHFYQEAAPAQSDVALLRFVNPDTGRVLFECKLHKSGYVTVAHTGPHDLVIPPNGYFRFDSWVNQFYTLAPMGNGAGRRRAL
# Method: as §1, §2
# [5] = molecular target: T5, GII.4/Sydney VLP (norovirus …, UniProt P54635 1-538); test: PGM blockade assay, serially diluted mAb
# T5 construct: also called Hu/GII.4/Sydney/NSW0514/2012/AU
# T5 chain: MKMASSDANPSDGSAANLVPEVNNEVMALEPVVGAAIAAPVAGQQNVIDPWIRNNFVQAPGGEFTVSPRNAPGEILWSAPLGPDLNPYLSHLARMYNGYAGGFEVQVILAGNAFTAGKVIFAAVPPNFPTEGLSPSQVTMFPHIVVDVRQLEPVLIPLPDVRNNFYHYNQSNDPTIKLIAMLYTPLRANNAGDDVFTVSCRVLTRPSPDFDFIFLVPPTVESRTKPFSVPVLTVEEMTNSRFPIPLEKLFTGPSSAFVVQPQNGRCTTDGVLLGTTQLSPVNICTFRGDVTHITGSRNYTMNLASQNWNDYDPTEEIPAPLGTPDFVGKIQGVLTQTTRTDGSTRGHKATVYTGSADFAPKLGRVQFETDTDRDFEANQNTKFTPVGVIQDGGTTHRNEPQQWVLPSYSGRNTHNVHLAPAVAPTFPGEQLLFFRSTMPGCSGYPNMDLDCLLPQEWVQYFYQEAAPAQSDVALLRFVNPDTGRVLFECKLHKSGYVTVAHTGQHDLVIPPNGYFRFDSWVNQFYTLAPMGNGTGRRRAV
# Method: as §1, §2
binder,measurement,setting,value
B1,binding result,[1],no binding
same,binding result,[2],no binding
same,blocking titer,[3],4850
same,blocking titer,[4],12100
same,blocking titer,[5],7280
